Experimental data published in patent US10725049B2, “Methods of detecting and measuring glutamine and analogues thereof, and methods related thereto” (Victoria Link Limited, priority 2013, dated 2020).
Peptide text beside a SMILES is read from it.

B1: BpsA: single module non-ribosomal peptide synthetase from Streptomyces lavendulae, SEQ ID NO:2 (protein, listed as Streptomyces lavendulae)
chain: MTLQETSVLEPTLQGTTTLPGLLAQRVAEHPEAIAVAYRDDKLTFRELASRSAALADYLEHLGVSADDCVGLFVEPSIDLMVGAWGILNAGAAYLPLSPEYPEDRLRYMIENSETKIILAQQRLVSRLRELAPKDVTIVTLRESEAFVRPEGTEAPAARSARPDTLAYVIYTSGSTGKPKGVMIEHRSIVNQLGWLRETYAIDRSKVILQKTPMSFDAAQWEILSPANGATVVMGAPGVYADPEGLIETIVKHNVTTLQCVPTLLQGLIDTEKFPECVSLQQIFSGGEALSRLLAIQTTQEMPGRALINVYGPTETTINSSSFPVDPADLDEGPQSISIGSPVHGTTYHILDKETLKPVGVGEIGELYIGGIQLARGYLHRDDLTAERFLEIELEEGAEPVRLYKTGDLGQWNNDGTVQFAGRADNQVKLRGYRVELDEISLAIENHDWVRNAAVIVKNDGRTGFQNLIACIELSEKEAALMDQGNHGSHHASKKSKLQVKAQLSNPGLRDDAELAARPAFDLEGAEPTPEQRARVFARKTYRFYEGGAVTQADLLGLLGATVTAGYSRKAADLAPAELGQILRWFGQYISEERLLPKYGYASPGALYATQMYFELEGVGGLKPGYYYYQPVRHQLVLISEREATGKATAQIHFIGKKSGIEPVYKNNILEVLEIETGHMVGLFEQILPAYGLDIHDRAYEPAVKDLLDVADEDYYLGTFELVPHAGARDDQAEVYVQTHGGKVAGLPEGQYRYENGELTRFSDDIVLKKHVIAINQSVYQAASFGISVYSRAEEEWLKYITLGKKLQHLMMNGLNLGFMSSGYSSKTGNPLPASRRMDAVLGANGVDSAPMYFFVGGRISDEQIGHEGMREDSVHMRGPAELIRDDLVSFLPDYMIPNRVVVFDRLPLSANGKIDVKALAASDQVNAELVERPFVAPRTETEKEIAAVWEKALRRENASVQDDFFESGGNSLIAVGLVRELNARLGVSLPLQSVLESPTIEKLARRLEREVAQESSRFVRLHAETGKARPVICWPGLGGYPMNLRSLAGEIGLGRSFYGVQSYGINEGETPYETITEMAKKDIEALKEIQPAGPYTLWGYSFGARVAFETAYQLEQAGEKVDNLFLIAPGSPKVRAENGKVWGREASFANRGYTTILFSVFTGTISGPDLDRCLETVTDEASFAEFISELKGIDVDLARRIISVVGQTYEFEYSFHELAERTLQAPISIFKAVGDDYSFLENSSGYSAEPPTVIDLDADHYSLLREDIGELVKHIRYLLGE
B2: PptT: PPTase from Mycobacterium tuberculosis (protein)
chain: MTVGTLVASVLPATVFEDLAYAELYSDPPGLTPLPEEAPLIARSVAKRRNEFITVRHCARIALDQLGVPPAPILKGDKGEPCWPDGMVGSLTHCAGYRGAVVGRRDAVRSVGIDAEPHDVLPNGVLDAISLPAERADMPRTMPAALHWDRILFCAKEATYKAWFPLTKRWLGFEDAHITFETDSTGWTGRFVSRILIDGSTLSGPPLTTLRGRWSVERGLVLTAIVL
modifications: left off: small tags and cut ends
notes: PPTase from Mycobacterium tuberculosis
B3: Sfp: PPTase from Bacillus subtilis (protein)
chain: MKIYGIYMDRPLSQEENERFMSFISPEKREKCRRFYHKEDAHRTLLGDVLVRSVISRQYQLDKSDIRFSTQEYGKPCIPDLPDAHFNISHSGRWVICAFDSQPIGIDIEKTKPISLEIAKRFFSKTEYSDLLAKDKDEQTDYFYHLWSMKESFIKQEGKGLSLPLDSFSVRLHQDGQVSIELPDSHSPCYIKTYEVDPGYKMAVCAAHPDFPEDITMVSYEELL
modifications: left off: small tags and cut ends
notes: PPTase from Bacillus subtilis

What was measured:
BpsA [1] = target: T1, BpsA (Streptomyces lavendulae, UniProt Q1MWN4); assay: BpsA-mediated synthesis of indigoidine-related pigments from glutamine analogues; type: biochemical; details: 4 mM substrate, 1.66 μM BpsA, 25° C., 72 hours
Experimental: For these experiments, BpsA activation was carried out as noted in Example 1. Pre-activated BpsA was incubated at 25° C. for 72 hours in reaction buffer amended with 4 mM of either L-glutamine, L-glycine-L-glutamine (glycyl glutamine), L-alanine-L-glutamine (alanyl glutamine), N-trifluoracetyl-L-glutamine, or no substrate as a control. Pre-activated and buffered BpsA at a final concentration of 1.66 μM was added to a reaction buffer containing 4 mM of each L-glutamine derivative in a final reaction volume of 1000 μL. This was then incubated al 25° C. for 72 hours. Each reaction tube was centrifuged and the supernatant removed. The indigoidine derivatives were then resuspended in 100 μL of 99.9% DMSO to solubilise the precipitated pigment.
The structures of each substrate and the predicted structure of the cyclised indigoidine-like product potentially produced in each reaction are depicted in FIGS. […]. […] The relative absorbance levels of each reaction at the end of the 72 hour incubation period are illustrated in FIG. 8E.

[2] = Stability of BpsA over time on storage; type: physicochemical; details: 24 weeks
Experimental: To monitor stability of Bps A over time after storage at these conditions, two BpsA samples were stored, one at 25° C. and one at 4° C. The two samples were then compared to recently purified BpsA. The BpsA stored at 4° C. retained 96% activity and the BpsA stored at 25° C. retained 15% activity after 24 weeks compared to the recently purified BpsA.

[3] = BpsA functionality (indigoidine synthesis from L-glutamine) in the presence of DMSO; type: biochemical
Experimental: In these experiments, samples of 500 μM L-glutamine were prepared in ddH2O amended with DMSO to a final DMSO concentration (v/v) of either 0%, 10%, 20%, 30% or 35%. A master mix with final reagent concentrations as indicated in Table 5 was prepared and dispensed into 18 wells of a fresh 96 well plate at a volume of 20 μL per well.
To test whether full L-glutamine conversion had been achieved in the presence of DMSO, 180 μL of DMSO heated to 50° C. was then added to each well to completely solubilise the indigoidine. The 96 well plate was then incubated at room temperature with shaking at 2500 rpm for 10 minutes. Following this, a single A590 reading was taken and the average of the triplicate values were graphed (FIG. 5B).

BpsA [4] = target: T1, BpsA; assay: Activation of apo-BpsA to holo-BpsA by PPTase, read out as indigoidine synthesis (A590); type: biochemical; details: in vitro, purified His6-tagged PPTase
Experimental: Apo-BpsA was converted to holo-BpsA in vitro, post-purification, as follows. Purified BpsA and Sfp were obtained by standard Ni/NTA chromatography following their expression as His6-tagged recombinant polypeptides. The bpsA and sfp genes were cloned into and expressed from plasmid pET28a+ in E. coli BL21 (DE3) cells, as described for BpsA and other PPTases by Owell et al (2011), with the modification that BpsA expression and purification was performed in an entD gene-deleted strain of E.coli BL21(DE3). This was done to avoid any activation of BpsA by endogenous EntD PPTase prior to BpsA purification.
Reagents were added to a 15 ml tube. This was vortexed for two seconds and transferred to a 30° C. shaking incubator (200 rpm) for 20 minutes to enable 4′-PP attachment to occur. A negative control was set up in the same manner, omitting Sfp and adding 88.16 μL of ddH2O instead of 84.48 μL of ddH2O.
Indigoidine synthesis reactions were performed in triplicate in a 96 well plate to assess whether activated BpsA was generated. For these reactions, 50 μL of 50 mM Tris-HCl, 10 mM MgCl2 in ddH2O was added to each of six wells. […] The 96 well plate was shaken at 1000 rpm and the A590 values (absorbance at 590 nm) were recorded for each well every twenty seconds for 60 minutes. […]

| Molecule | Pigment formation by pre-activated BpsA from the substrate (BpsA [1]) | Ability of PPTase to activate BpsA (BpsA [4]) | further results |
| --- | --- | --- | --- |
| NCC(=O)N[C@@H](CCC(N)=O)C(=O)O [glycyl-glutamine, L-glycine-L-glutamine] (H-Gly-Gln-OH) | used to produce indigoidine-like pigments |  |  |
| C[C@H](N)C(=O)N[C@@H](CCC(N)=O)C(=O)O [alanyl glutamine, L-alanine-L-glutamine] (H-Ala-Gln-OH) | used to produce indigoidine-like pigments |  |  |
| NC(=O)CC[C@H](NC(=O)C(F)(F)F)C(=O)O [N-trifluoroacetyl-L-glutamine] | used to produce indigoidine-like pigments |  |  |
| B1 |  |  | Activity retained compared to recently purified BpsA ([2]; stored at 4° C.): 96%; Activity retained compared to recently purified BpsA ([2]; stored at 25° C.): 15%; BpsA activity in the presence of DMSO ([3]; 0-35% DMSO v/v, end-point A590 after full solubilisation): impaired at all concentrations of DMSO; DMSO concentration up to which BpsA retains partial functionality ([3]; 500 μM L-glutamine, DMSO v/v): up to 35% |
| B2 |  | similarly able to activate BpsA |  |
| B3 |  | effective means of pre-activating BpsA |  |
